Where a chain is given by its changes, count along the chain named. Values belong to the binder of their own block, whether it stands above or below them.
Experiments:
[1] = biological target: human TNFRSF25 over-expressed on CHOK1 cells (cDNA sequence NP_683866) (human) (UniProt Q93038); test: flow cytometry competition (upper panel); CHOK1-TNFRSF25+ cells with antibody 30 min at 4 C, then biotinylated human TL1A-Fc at 156 nM, PE-streptavidin
[2] = biological target: human TNFRSF25 over-expressed on CHOK1 cells (cDNA sequence NP_683866) (human) (UniProt Q93038); test: flow cytometry on CHOK1-TNFRSF25+ cells; APC anti-human Fc
[3] = biological target: human TNFRSF25 over-expressed on CHOK1 cells (cDNA sequence NP_683866) (human) (UniProt Q93038); test: flow cytometry on CHOK1-TNFRSF25+ cells (lower panel), 1 h at 4 C, APC anti-human Fc

B1: NH46 (whole antibody) (antibody, human IgG1, kappa, V domains shown)
VH: QVQLVQSGSEVKKPGASVRVSCKVSGSTVKELSMHWVRQAPGKGLEWMGGYDPEDGESIFAQKFQGRVNMTEDRSTDTAYMELSSLRSEDTAVYYCATDLNWEDAFDVWGQGTMVTVSS
VL: QSVLTQPPSVSAAPGQKVTISCSGSGSNIGNYYVAWYQQFPGTAPKLLIYDNNKRPSGIPDRFSGSKSGTSATLGITGLQTGDEADYYCGTWDTSLTAGDIYVFGTGTKVTVLR
- IC50 [1]: 49 nM
- EC50 [2]: 0.05 nM

B3: NH24-35 (antibody) (antibody, V domains shown)
VH: EVQLVESGGGSVQPGGSLRLSCAASGFTFSSYGMSWIRQAPGKGLEWVSYISSSGGHTYYADSVKGRFTISRDNAKNSLYLQMNSLRAEDTAVYYCARYSGAFDHWGQGTLVTVSS
VL: DIVMTQSPSSLSASVGDRVTITCQASQDITNYLSWYQQKPGKAPKLLINDASNLETGVPSRFSGSGSGTDFTFTISSLQPEDIATYYCQQYDTLPITFGQGTRLEIKR
- IC50 [1]: 4 nM

B5: NH24-162 (antibody, V domains shown)
VH: B3 VH with I37V, V48I, R67Q, Y99G, A102S, H105Y
VL: B3 VL with T30S, N49S, T93N
- IC50 [1]: 49 nM

The next lines start with the values.

- EC50 (read off the curve) [3]: 0.003 nM
B2: SL-061mut213 (antibody, human IgG1, kappa, V domains shown)
VH: QVQLQQSGPGLVKPSQTLSLTCAISGDSVSSYSAAWNWIRQSPSRGLEWLGRTYYRSKWFNDYAVSVKSRITINPDTSKNQFSLQLNSVTPEDTAVYYCARDYYGSESYYNRGYYYYGLDVWGQGTTVTVSS
VL: AIQLTQSPSSLSASVGDRVTITCRASPSISSALAWYQQKPGKAPKLLMYDESSQEGSVPSRFSGSGSGTDFTLTISSLQPEDFATYYCQQFNEYPLTFGGGTKVEIKR

- IC50 [1]: 8 nM
B4: NH24-72 (antibody, V domains shown)
VH: B3 VH with S35N, V48I, S49T, Y99G, S100Q, A102P, D104E, H105Y
VL: B3 VL with T30S, T93N

— US12319742
